In publication PMC10786891, “Massively parallel profiling of RNA-targeting CRISPR-Cas13d”:
Changes are numbered by the printed parent chain. Names and notes keep the numbering of the source.

T1: EsCas13d, nuclease-dead (Eubacterium siraeum, UniProt B0MS50, R295A;H300A;R849A;H854A)
T1 sequence: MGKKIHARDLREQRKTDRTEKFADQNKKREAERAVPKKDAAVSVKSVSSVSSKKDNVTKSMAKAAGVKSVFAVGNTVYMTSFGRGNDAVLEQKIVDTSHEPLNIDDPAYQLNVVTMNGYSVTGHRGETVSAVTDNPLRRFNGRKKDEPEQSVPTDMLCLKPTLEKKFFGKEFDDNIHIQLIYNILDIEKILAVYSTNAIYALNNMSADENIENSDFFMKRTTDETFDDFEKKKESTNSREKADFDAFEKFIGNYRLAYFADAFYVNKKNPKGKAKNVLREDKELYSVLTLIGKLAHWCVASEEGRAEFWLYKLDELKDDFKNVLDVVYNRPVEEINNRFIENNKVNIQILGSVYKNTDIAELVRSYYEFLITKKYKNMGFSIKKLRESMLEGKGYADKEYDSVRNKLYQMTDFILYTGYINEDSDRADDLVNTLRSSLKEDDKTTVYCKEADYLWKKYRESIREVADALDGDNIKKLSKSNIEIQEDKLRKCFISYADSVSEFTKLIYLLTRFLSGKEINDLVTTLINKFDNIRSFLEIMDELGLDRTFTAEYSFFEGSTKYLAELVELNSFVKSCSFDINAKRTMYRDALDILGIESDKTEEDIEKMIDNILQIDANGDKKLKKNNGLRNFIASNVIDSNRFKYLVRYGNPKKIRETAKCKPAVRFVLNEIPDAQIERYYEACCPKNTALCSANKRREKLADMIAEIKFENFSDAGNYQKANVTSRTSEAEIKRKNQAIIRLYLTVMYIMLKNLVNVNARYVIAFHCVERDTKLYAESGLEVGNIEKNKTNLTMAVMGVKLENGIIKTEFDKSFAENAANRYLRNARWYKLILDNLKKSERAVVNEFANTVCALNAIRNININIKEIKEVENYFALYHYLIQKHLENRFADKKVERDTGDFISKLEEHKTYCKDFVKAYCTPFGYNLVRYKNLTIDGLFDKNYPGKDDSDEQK

B1: target 1 G15U,G17A (mixed)
RNA 1: CACCCGUGCAAAAAUGCAGGGGUCUAAAACUGAGCGGAUAACCUCUCUAUGG
RNA 2: GGGAAUGGAUCCACAUCUACGAAUUCGUACCAUAAAUAGGUUAUCCGCUCACCGAGAUCGGAAGAGCACACGU
B2: target 1 insG 3' of 10,insG 3' of 10 (mixed)
RNA 1: B1 RNA 1
RNA 2: GGGAAUGGAUCCACAUCUACGAAUUCGUACCAUAGAGAGGUUGGAUCCGCUCACCGAGAUCGGAAGAGCACACGU
B3: target 1 U8A,C22A (mixed)
RNA 1: B1 RNA 1
RNA 2: B1 RNA 2 with C30A, A35G, U37G, U44A
B4: target 3 insA 3' of 21,insC 3' of 3 (mixed)
RNA 1: CACCCGUGCAAAAUUGCAGGGGUCUAAAACGACCUGAAUAUUUCAGAUCAAA
RNA 2: GGGAAUGGAUCCACAUCUACGAAUUCGUUUUAUGAUCUGAAAUAUUCAGGCUCUGCAGAUCGGAAGAGCACACGU
B5: target 3 G3C,A9G (mixed)
RNA 1: B4 RNA 1
RNA 2: GGGAAUGGAUCCACAUCUACGAAUUCGUUUUUGAUCUGAAAUGUUCAGCUCUGCAGAUCGGAAGAGCACACGU
B6: target 3 C6G,U7A (mixed)
RNA 1: B4 RNA 1
RNA 2: B5 RNA 2 with G43A, U45A, C46G, C49G
B7: target 3 insU 3' of 9,insA 3' of 7 (mixed)
RNA 1: B4 RNA 1
RNA 2: GGGAAUGGAUCCACAUCUACGAAUUCGUUUUUGAUCUGAAAUAUUUACAGGUCUGCAGAUCGGAAGAGCACACGU
B8: target 3 U2G,U22C (mixed)
RNA 1: B4 RNA 1
RNA 2: B5 RNA 2 with U30C, G43A, C49G, U50G
B9: target 3 A9U (mixed)
RNA 1: B4 RNA 1
RNA 2: B5 RNA 2 with G43U, C49G
B10: target 3 insG 3' of 6,insA 3' of 6 (mixed)
RNA 1: B4 RNA 1
RNA 2: B7 RNA 2 with U46C, A47G, C48A
B11: target 3 C1G,A9U (mixed)
RNA 1: B4 RNA 1
RNA 2: B5 RNA 2 with G43U, C49G, C51G
B12: target 3 insC 3' of 13,insA 3' of 2 (mixed)
RNA 1: B4 RNA 1
RNA 2: B7 RNA 2 with A40C, U42A, A43U, U44A, A47C, C48A, A49G, G51U, U52A
B13: target 3 insG 3' of 5,insA 3' of 2 (mixed)
RNA 1: B4 RNA 1
RNA 2: B7 RNA 2 with U46C, C48G, A49G, G51U, U52A
B14: target 3 U2G,U20C (mixed)
RNA 1: B4 RNA 1
RNA 2: B5 RNA 2 with U32C, G43A, C49G, U50G
B15: target 3 insC 3' of 9,insC 3' of 3 (mixed)
RNA 1: B4 RNA 1
RNA 2: B7 RNA 2 with U44C, A47C, C48A, A49G, G51C
B16: target 3 insC 3' of 7,insA 3' of 3 (mixed)
RNA 1: B4 RNA 1
RNA 2: B7 RNA 2 with U46C, A47C, C48A, A49G, G51A
B17: target 3 insU 3' of 9,insG 3' of 7 (mixed)
RNA 1: B4 RNA 1
RNA 2: B7 RNA 2 with A47G
B18: target 3 insG 3' of 2,insG 3' of 2 (mixed)
RNA 1: B4 RNA 1
RNA 2: B7 RNA 2 with U46C, C48G, A49G, G50U, U52G
B19: target 3 A18U,U22A (mixed)
RNA 1: B4 RNA 1
RNA 2: B5 RNA 2 with U30A, A34U, G43A, C49G
B20: target 3 insA 3' of 2,insG 3' of 1 (mixed)
RNA 1: B4 RNA 1
RNA 2: B7 RNA 2 with U46C, C48G, A49G, G50U, G51A, U52C, C53G
B21: target 3 C1G,A5U (mixed)
RNA 1: B4 RNA 1
RNA 2: B5 RNA 2 with G43A, A47U, C49G, C51G
B22: target 3 C1A,U2C (mixed)
RNA 1: B4 RNA 1
RNA 2: B5 RNA 2 with G43A, C49G, U50C, C51A
B23: target 3 insG 3' of 8,insG 3' of 6 (mixed)
RNA 1: B4 RNA 1
RNA 2: B7 RNA 2 with U45G, A47C, C48G
B24: target 3 insC 3' of 9,insU 3' of 5 (mixed)
RNA 1: B4 RNA 1
RNA 2: B7 RNA 2 with U44C, A47C, C48A, A49U
B25: target 3 del6 (mixed)
RNA 1: B4 RNA 1
RNA 2: GGGAAUGGAUCCACAUCUACGAAUUCGUUUUUGAUCUGAAAUAUUAGGUCUGCAGAUCGGAAGAGCACACGU
B26: target 3 del1,del15 (mixed)
RNA 1: B4 RNA 1
RNA 2: GGGAAUGGAUCCACAUCUACGAAUUCGUUUUUGAUCGAAAUAUUCAGGUUGCAGAUCGGAAGAGCACACGU
B27: target 3 insC 3' of 15,insC 3' of 11 (mixed)
RNA 1: B4 RNA 1
RNA 2: B7 RNA 2 with G38C, A39G, U42A, A43C, U45A, A47U
B28: target 3 C16U,U22A (mixed)
RNA 1: B4 RNA 1
RNA 2: B5 RNA 2 with U30A, C36U, G43A, C49G
B29: target 3 insU 3' of 22,insC 3' of 22 (mixed)
RNA 1: B4 RNA 1
RNA 2: GGGAAUGGAUCCACAUCUACGAAUUCGUUUUCUUGAUCUGAAAUAUUCAGGUCUGCAGAUCGGAAGAGCACACGU
B30: target 3 insC 3' of 7,insA 3' of 7 (mixed)
RNA 1: B4 RNA 1
RNA 2: B7 RNA 2 with U46C
B31: target 3 C1U,G3A (mixed)
RNA 1: B4 RNA 1
RNA 2: B5 RNA 2 with G43A, C49A, C51U
B32: target 3 U20A,U21G (mixed)
RNA 1: B4 RNA 1
RNA 2: B5 RNA 2 with U31G, U32A, G43A, C49G
B33: target 3 U7A,A18G (mixed)
RNA 1: B4 RNA 1
RNA 2: B5 RNA 2 with A34G, G43A, U45A, C49G
B34: target 3 insC 3' of 11,insG 3' of 7 (mixed)
RNA 1: B4 RNA 1
RNA 2: B7 RNA 2 with U42C, A43U, U44A, A47G

Each binder was assayed against T1, EsCas13d, nuclease-dead (assay: crRNA (strand 1, pre-loaded); Mg2+; 40 mM Tris-HCl pH 7.5, 150 mM NaCl, 6 mM MgCl2, 1 mM DTT, 0.1% Tween-20, 0.2 mg/ml BSA; 25 C; 10 min per concentration, then washed). Conditions: tags: His6-TwinStrep-SUMO cleaved; N-terminal SNAP kept (SNAP-Surface 488); label: 3' end held by stalled T7 RNA polymerase.

Binder | Kd
B1 | 53 ± 5 nM
B2 | 21.8 ± 2.2 nM
B3 | 31.1 ± 2.2 nM
B4 | 35 ± 5 nM
B5 | 55.5 ± 5.5 nM
B6 | 48.5 ± 5.5 nM
B7 | 51 ± 10.5 nM
B8 | 19.8 ± 3.55 nM
B9 | ~120 nM
B10 | 8.8 ± 0.75 nM
B11 | 100 ± 40 nM
B12 | 70 ± 13 nM
B13 | 39 ± 6 nM
B14 | 50 ± 19 nM
B15 | 88 ± 24.5 nM
B16 | 68 ± 14 nM
B17 | 84.5 ± 18.5 nM

Binder | Kd
B18 | 22 ± 2.05 nM
B19 | 97.5 ± 30.5 nM
B20 | 36 ± 9 nM
B21 | 10.1 ± 1.55 nM
B22 | 18.6 ± 3.7 nM
B23 | 31.6 ± 2.7 nM
B24 | 76.5 ± 12.5 nM
B25 | 38.4 ± 3.55 nM
B26 | 62 ± 18 nM
B27 | 46 ± 4 nM
B28 | 70 ± 11 nM
B29 | 39.5 ± 6 nM
B30 | 11 ± 1.4 nM
B31 | 45 ± 10.5 nM
B32 | 98 ± 39.5 nM
B33 | 49 ± 6 nM
B34 | 49 ± 11.5 nM
